Data reported in the supplement of paper PMC9170038.

Tested on: MS2 coat protein
Experiment: apparent KD of MS2 coat protein; designed switch direction (-1 OFF switch, 1 ON switch): -1; higher = weaker reporter binding
How it was run: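 Normalised cluster fluorescence was curve-fitted, and each design's median over clusters is its apparent KD. Before this, SNAP-549-labelled MS2 coat protein was titrated from 0.7 or 1.5 nM, doubling to 3 µM, over RNA switches transcribed on Illumina chips by stalled E. coli RNA polymerase. Titrations had no input, 200 uM small-molecule ligand, or an oligonucleotide input, and steps lasted 0.8–1.5 h (lowest) to 10–20 min (highest).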

[1] = input ligand: microRNA oligo, concentration not stated
[2] = Eterna round: R95, input ligand: FMN 200 uM
[3] = Eterna round: R95, input ligand: microRNA oligo, concentration not stated
[4] = Eterna round: R95, input ligand: none

Row | Sequence | apparent KD of MS2 coat protein (input ligand: FMN 200 uM) [nM] | apparent KD of MS2 coat protein (input ligand: none) [nM] | further results
1 | AGAUCGAGUGUGAGGAUAUUGACCGGACGACCCAUCGAGAAGGCACAUGAGGAUCACCCAUGUGAUUCGGUUCA [Brourd's EX4 #57] (Eterna round: R97, puzzle: Brourd's mod of Exclusion 4) | 27.1 | 15.4 | –
2 | AGAUCGUCAGGAUAUACAUGAGGAUCACCCAUGUAUUGUCUAAAUUUGACUAUACGAUGUAGAAGGGACGAUCG [Exclusion 3 (MOD7 of #1 Marzena11)] (Eterna round: R97, puzzle: Exclusion 3) | 41.7 | 16.2 | –
3 | AGAUCUAGGACAGGAUAUAUGGAUGUCUUCAUCGAAGAUGAAGACAUCACAUGAGGAUCACCCAUGUAGAAGGGUCCUAGAUCA [Omei Exc(NG) 2Av2] (Eterna round: R96, puzzle: Exclusion NG 2) | 11.9 | 15.6 | apparent KD of MS2 coat protein [1]: 13.5 nM
4 | AGAUGCUCAAGUCGACAUGAGGAUCACCCAUGUACAGUUAAUGAGGAUAUCUGAGAUAAAUAAUAGGAGAAGGCGUGAACAUGA [Ex NG3 #9] (Eterna round: R96, puzzle: Exclusion NG 3) | 25.9 | 34.9 | apparent KD of MS2 coat protein [1]: 20.3 nM
5 | AGAUGCUCGAGUCAACAUGAGGAUCACCCAUGUACAGUUAAUGAGGAUAUCUGAGACAAAUAGUAGGAGAAGGCGUGAACAUGA [Ex NG3 #12] (Eterna round: R96, puzzle: Exclusion NG 3) | 32.1 | 39.6 | apparent KD of MS2 coat protein [1]: 69 nM
6 | AGAUGCUCGAGUCGACAUGAGGAUCACCCAUGUACAGUUAGUGAGGAUAUCUGAGACACAUAGUAGGAGAAGGCGCGAACAUGA [Ex NG3 #13] (Eterna round: R96, puzzle: Exclusion NG 3) | 132 | 60 | apparent KD of MS2 coat protein [1]: 43.4 nM
7 | AGAUGGCGAGGAUAUACAUGAGGAUCACCCAUGUGAAGAUAUAAAGUGAGGAAGAAAAGUAGAAGGCGCUGUCA [Mat - Exclusion 3 - Mod of Salish D25] (puzzle: Exclusion 3) | – | – | apparent KD of MS2 coat protein [2]: 225 nM; apparent KD of MS2 coat protein [3]: 48.8 nM; apparent KD of MS2 coat protein [4]: 63.7 nM
8 | AGAUGGCGAGGAUAUACAUGAGGAUCACCCAUGUGAGAGAAAAGAGUGAGGAAGAAAAGUAGAAGGCGCUGUCA [Mat - Exclusion 3 - Mod of Salish D17] (puzzle: Exclusion 3) | – | – | apparent KD of MS2 coat protein [3]: 71 nM
9 | AGAUGGCGAGGAUAUACAUGAGGAUCACCCAUGUGAGAUAAAAUAGUGAGGAAGAAAAGUAGAAGGCGCUGUCA [Mat - Exclusion 3 - Mod of Salish D15] (puzzle: Exclusion 3) | – | – | apparent KD of MS2 coat protein [2]: 268 nM; apparent KD of MS2 coat protein [3]: 58.1 nM; apparent KD of MS2 coat protein [4]: 73 nM
10 | AGAUUAAAUGAGGAUAUCGUAUUGGAUAUAGUGCGAGAAGGCAUGACAUGAGGAUCACCCAUGUAGUGUUGGGA [JR_Ex6_Sub009] (Eterna round: R97, puzzle: Exclusion 6) | 91.5 | 43.4 | –
11 | AGCACUAUCACGAAAGUGAUAGUGCAAUAAGCAAGUGAAACAUGAGGAUCACCCAUGUCCUCAAUUGCUCGUCUUAU [Mat - Sensor v2 -ver2- JL mod - D81] (Eterna round: R96, puzzle: Sensor v2, turn-off variant 2) | 49.3 | 51.2 | apparent KD of MS2 coat protein [1]: 807 nM
12 | AGCAGACGAGGAUAUAAAUGAUAUAACAUGAGGAUCACCCAUGUACGAUCGAAUGAUCGUUUAGAAGGCGUCUGCU [E5/11-A1] (Eterna round: R97, puzzle: Exclusion 5) | 16.5 | 16.3 | –
13 | AGCAGACGAGGAUAUGAUCAAUAAUACAUGAGGAUCACCCAUGUAAUACUGAUCCAUGGAUCAGAAGGCGUCUGCU [E5/5-A1] (Eterna round: R97, puzzle: Exclusion 5) | 23.5 | 16.4 | –
14 | AGCAUGCUAGGAUAUACGAAACAUUAGGGUUCGUCGUAUGAACAUGAGGAUCACCCAUGUAGAAGGAGCGUGCA [Mat - Exclusion 2 - Mod of Hyphema - D95] (puzzle: Exclusion 2) | – | – | apparent KD of MS2 coat protein [3]: 17.9 nM
15 | AGCAUGUAAGGAUAUGCAACACGACGUUCAAUCGUCGUGCCGCAGAAGGUACAUGAGGAUCACCCAUGUGCUCC [Xesodied] (puzzle: Exclusion 4) | – | – | apparent KD of MS2 coat protein [3]: 75.4 nM
16 | AGCAUGUAAGGAUAUGUAACGCGGCGUUCAUUCGUCGUCCCACAGAAGGUACAUGAGGAUCACCCAUGUGCUCC [Veorla] (puzzle: Exclusion 4) | – | – | apparent KD of MS2 coat protein [3]: 39 nM
17 | AGCCAAGCAGGAUAUAUCCGGGAUAACAUGAGGAUCACCCAUGUGACCGAUUGAUGUCCUAUAGAAGGGCUUGGGA [Mod of ViennaUCT 22 - Jieux - Exclusion 5] (Eterna round: R97, puzzle: Exclusion 5) | 176 | 43.5 | –

Row | Sequence | apparent KD of MS2 coat protein (input ligand: FMN 200 uM) [nM] | apparent KD of MS2 coat protein (input ligand: none) [nM] | further results
18 | AGCCAAGCAGGAUAUGCCCGGGAUAACAUGAGGAUCACCCAUGUGACCGAUUGAUGUCCUGCAGAAGGGCUUGGGA [Erxesoan] (Eterna round: R96, puzzle: Exclusion 5) | 82.4 | 16.9 | apparent KD of MS2 coat protein [1]: 11.4 nM
19 | AGCCAAGCAGGAUAUGCCCGGGAUAACAUGAGGAUCACCCAUGUGACCGAUUGAUGUCCUGCAGAAGGGCUUGGGA [Erxesoan] (puzzle: Exclusion 5) | – | – | apparent KD of MS2 coat protein [3]: 15.8 nM
20 | AGCCAAGCAGGAUAUGCCCGGGAUAACAUGAGGAUCACCCAUGUGACCGAUUGAUGUCCUGCAGAAGGGCUUGGGA [Mod of ViennaUCT - Jieux - Exclusion 5] (Eterna round: R97, puzzle: Exclusion 5) | 83.2 | 17.9 | –
21 | AGCCAUCGUGUGAGGAUAUCGAUAAGUUCGAGUUUCGAGAAGGCACAUGAGGAUCACCCAUGUCGUGAAAGAAA [BmEX4 A.28] (Eterna round: R97, puzzle: Brourd's mod of Exclusion 4) | 75.8 | 244 | –
22 | AGCCCGCAAGGAGGAUAUUAACAUGAGGAUCACCCAUGUAAUCACUAGAUAGCACGGGCGGUUCGUAAGAAGGUCUAGUGGAAU [Eternabot solution 24] (Eterna round: R96, puzzle: Exclusion NG 2) | 35.4 | 33.1 | apparent KD of MS2 coat protein [1]: 22.3 nM
23 | AGCCCUAAUGUCAGGAUAUGCAUCCUUAAUGGACGGCAGAAGGGACAUGAGGAUCACCCAUGUAAAUAGAAAUU [Direised] (puzzle: Brourd's mod of Exclusion 4) | – | – | apparent KD of MS2 coat protein [3]: 31.4 nM
24 | AGCCCUGCAGGAUAUGCCCGGGAUAACAUGAGGAUCACCCAUGUGACUGAUUGUUAUCCUGCAGAAGGGCAUGGGA [JL-EX5-4.13 ViennaUCT mod] (Eterna round: R97, puzzle: Exclusion 5) | 547 | 1000 | –
25 | AGCCUAGCAGGAUAUGCCCGGGAUAACAUGAGGAUCACCCAUGUGACUGAUUGAUGUCUUGCAGAAGGGCUAGGGA [JL-EX5-4.03 ViennaUCT mod] (Eterna round: R97, puzzle: Exclusion 5) | 211 | 26.1 | –
26 | AGCCUCUAAGGAUAUACAUGAGGAUCACCCAUGUACUUAGAAGGGAAACCUUCUAUAUGUAGAAGGUAGAAGCA [Exclusion 3 S1] (Eterna round: R97, puzzle: Exclusion 3) | 16 | 12.7 | –
27 | AGCGAAUGAGGAUAUUAUCUCACCUACAUGAGGAUCACCCAUGUGGUCGCACCUGGCGAGUGAGAAGGCAUUCGGA [Eternabot (Original) Solution 41] (Eterna round: R97, puzzle: Exclusion 5) | 112 | 49.8 | –
28 | AGCGAGGCAGGAUAUACAUGAGGAUCACCCAUGUACUUGUAUGGCGUGGAACAUCGUGGUAGAAGGGCCGUGCC [EX3 #80] (Eterna round: R97, puzzle: Exclusion 3) | 92.7 | 68.9 | –
29 | AGCGCGUUCUAGGAUAUCCGGUGGGACACAUACGGAGAAGGAGAAACAUGAGGAUCACCCAUGUAUGGAGAUCG [Eternabot (L1) Solution 7] (Eterna round: R97, puzzle: Exclusion 6) | 309 | 102 | –
30 | AGCGGCCGAGGAUAUACAAUCCUCCUGGCAGCCUGUCUGCCACAUGAGGAUCACCCAUGUAGAAGGCGGACCGC [Xelezabi] (puzzle: Exclusion 2) | – | – | apparent KD of MS2 coat protein [3]: 128 nM
31 | AGCGGGUUAGGAUAUACCUGGGUAUGAAAAGCCUAACCUCGACAUGAGGAUCACCCAUGUAGAAGGAGCUCGGC [Eternabot (Original) Solution 3] (Eterna round: R97, puzzle: Exclusion 2) | 91 | 36.9 | –
32 | AGCGUGGAGACAGGAUAUGAGAAUAGAUAGAACUCAGAAGGGUCACAUGAGGAUCACCCAUGUAAAGUCUUGAGGCUGAGUGGU [Prohibition 6 - Jieux - Exclusion NG 1] (Eterna round: R96, puzzle: Exclusion NG 1) | 153 | 45.2 | apparent KD of MS2 coat protein [1]: 36.4 nM
33 | AGCUAGAUAGGAUAUGCCCGGGAUAACAUGAGGAUCACCCAUGUGACCGAAUCAUGUCCAGCAGAAGGGUUUGGGA [Mod of ViennaUCT 9 - Jieux - Exclusion 5] (Eterna round: R97, puzzle: Exclusion 5) | 34.7 | 23.3 | –
34 | AGCUAGAUAGGAUAUGCCCGGGAUAACAUGAGGAUCACCCAUGUGACCGAUUCAUGUCCAGCAGAAGGGUUUGGGA [Mod of ViennaUCT 8 - Jieux - Exclusion 5] (Eterna round: R97, puzzle: Exclusion 5) | 17.1 | 16.7 | –
